According to patent US20260250363A1:
Where two headings read alike, the source gives them in different places.

Tests used:
[1] = molecular target: SARS-CoV-2 +E484K B.1.1.7 Spike Protein (R&D, Cat. #10824-CV) (SARS-CoV-2) (UniProt P0DTC2); assay: competition ELISA: blocks biotin-ACE2 binding to coated spike
[2] = molecular target: SARS-CoV-2 +E484K B.1.1.7 Spike Protein (R&D, Cat. #10824-CV) (SARS-CoV-2) (UniProt P0DTC2); assay: direct ELISA on coated spike
[3] = molecular target: SARS-CoV-2 +E484K B.1.1.7 Spike Protein (R&D, Cat. #10824-CV) (SARS-CoV-2) (UniProt P0DTC2); assay: BLI (ForteBio), mAb on AHC sensor, spike in solution
[4] = molecular target: SARS-CoV-2 +E484K B.1.1.7 Spike Protein (R&D, Cat. #10824-CV) (SARS-CoV-2) (UniProt P0DTC2); assay: competition ELISA: blocks biotin-ACE2 binding to coated spike; remark: listed apart in the source

Substance | IC50 [1] | EC50 [2] | Kd [3] | IC50 [4]
Casirivimab (antibody) | 3.13 nM | 0.0584 nM | 3.4 nM | 3.3 nM
Imdevimab (antibody) | – | 0.0505 nM | 0.831 nM | –
